Measurements reported in the supplement of paper PMC12764529.
± gives the half width of the 95% confidence interval.

Assays:
[1] = folding stability dG unfold from trypsin proteolysis; higher = more stable
Description: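 Folding stability of de novo designed mini-proteins (<80 aa, no Cys; designed by TrROS, TrMRF, ProteinMPNN and the joint model) was measured by cDNA display proteolysis with trypsin and chymotrypsin. Each protease was used at 11 concentrations in a threefold dilution series plus a no-protease condition. K50 was inferred by Bayesian fitting of sequencing counts, and dG unfold was derived against a sequence-predicted unfolded-state K50 (Tsuboyama et al. method). Sequences shown include variable-length N-terminal GS-type padding (SAGGSAGG...) inside a display construct carrying a PA tag. Rows were kept only if the AF2 dimer inter-PAE was >15, to exclude likely homo-oligomers.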

[2] = folding stability dG unfold from chymotrypsin proteolysis; higher = more stable
In short: (§1)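 How resistant each design was to proteolysis was captured as K50, inferred by Bayesian fitting of sequencing counts. Unfolding free energy was then derived relative to a sequence-predicted unfolded-state K50 and a shared folded-state K50, per protease or combined. Digestion used trypsin and chymotrypsin at 11 threefold-diluted concentrations plus a no-protease condition, on mini-proteins under 80 residues without cysteine in a PA-tagged cDNA display construct. Designs were kept only when AlphaFold2 dimer inter-PAE was above 15.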

[3] = folding stability dG unfold (combined trypsin and chymotrypsin); higher = more stable
In short: as §1

Sequence | folding stability dG unfold [1] [kcal/mol] | folding stability dG unfold [2] [kcal/mol] | folding stability dG unfold [3] [kcal/mol]
SADKIKIPPGFQIFGPNGQPIRPGTEVEVEDIEPHPGGGEFMFEVKIKSPDDGEEHNWPIMIRFPPAGKSAG [r14_258_TrROS] | 0.755 ± 0.13 | -0.395 ± 0.24 | 
SAGGDPAPLEVDIEMDPDNGRIRIEIRAGGSKVIYEYEIPLDGYEFKVKIIVVDGKIVIEIEFEMPDSAGGS [r16_631_TrROS] | 4.27 ± 0.55 | 3.81 ± 0.27 | 
SAGGKRKIMIPMDEMEEKFGIPPNQTVEELAKYINPNYKIEVDNVRYEKDENGKERYWVKVEIEPPKDSAGG [r13_723_TrROS] | 0.739 ± 0.25 | -0.136 ± 0.61 | 
SAGGSAGGKKKKPPPLVVVKIEITNPNGEKKELTLVFPSLEDAKAAIEALLPPGYTAKVEIKPLSAGGSAGG [r6_289_TrROS_Hall] | 3.16 ± 0.35 | 3.69 ± 0.37 | 
SAGGSAGGSAGEEEVEPPPEVVVRVRFFDKDGKEVLEVEMSLDELRALAEAGLVEVELEPSAGGSAGGSAGG [r11_159_TrROS_Hall] | 2.97 ± 0.25 | 2.63 ± 0.33 | 
SAGGSAGGSAGGGKYRLKLRFTFTNAAGGSSELELEVEIEIPPPPLIAPDADGHWYSLTSAGGSAGGSAGGS [r10_330_TrMRF] | 3.86 ± 0.27 | 5.31 ± 0.65 | 
SAGGSMTLTEVSYEGDKVVTTTTTFTPGAPALTSSTTTTPIPPVPLGPRPVIFFEPVSEMRPLALVSAGGSA [r2_332_JUSTAS] | 0.628 ± 0.051 |  | 0.034 ± 0.17
SAGGSMTLTFRKPDTDVTSEKVTKPPGGPELVDLRITPPDGSGEKRTLTPEELAKEFGLSLEEILESAGGSA [r2_262_JUSTAS] | -0.183 ± 0.31 |  | < -1
SAGGSPTIDITPEVFEELKKKGVTPDKESFNITASLPDGTVYEGTITLPPSNPNIPFEYKPVDKPLESAGGS [r16_497_JUSTAS] | -0.22 ± 0.061 |  | -0.515 ± 0.21
SAGGSRQVIEWEFKDPKNGKPFEISIEYDEENGVPMVEIRDRNGEPNAVVPVPPDNADEALEKFGISAGGSA [r2_115_TrROS] | -0.903 ± 0.46 |  | < -1
SAGGSVRIESIKWKRPPNGMFKIEIHVEAPPGDPDDPEKQERQAESVAKPIAKELQDEFGFKPIGPSAGGSA [r2_306_TrROS] | -0.774 ± 0.99 |  | < -1
SAGGWMPIEDLKDIPENMPPGYKITIRNPGNGQEGTFEYNKDGGIKIEDPGKPVEIPPGAYIDEIEPSAGGS [r8_162_TrROS] | 0.654 ± 0.12 |  | -0.679 ± 0.71
SAGGWRLNINFPPDNIEKIVEKLRDEFPGWEIKPDKIEYNPDDGQYTIPIEVKSKNPRAAEKIQDAIQSAGG [r13_539_TrROS] | 0.154 ± 0.14 |  | -0.955 ± 0.39
SAGKFKITSIKPLYVTTPADAPPVKKPYLVIELDAEDPEKARELAEKLTGAPVLVVEDPETGTATIVIDSAG [r5_907_TrMRF] | 0.121 ± 0.082 |  | -0.357 ± 0.17
SAGKITIEYDKETNTVTVTIEIEIEVINEDGSIEKKKITITVKVKVDKKTNKVELLSLDEILKKLEELLSAG [r5_239_TrROS_Hall] | 2.92 ± 0.2 |  | 3.81 ± 0.36
SAGMYTVLETRTVNGRTVTLIDVPERPLTVTVTVDRDPSGRRTVTVNVEGEVKEILEKANPDIDELTLESAG [r5_933_JUSTAS] | 0.456 ± 0.096 |  | -0.15 ± 0.2
SAGPKIVEVKPSNGKLEITVEIPVPGAPVLFLNPAKNATIESDPNGRITITLDSEGEYEIIIGNPVFDSAGG [r19_227_TrMRF] | 0.394 ± 0.026 |  | 0.0526 ± 0.087
SAGSMPVESTSERKLEKDGVATVTTTSYPDASPGGTDTVTVTLHPGESESATTTYTQPPGAPPLTVSLESAG [r5_47_JUSTAS] | -1.05 ± 0.27 |  | < -1
SAGVEELAEKIAKELEGEDFEVEAEVDPEKGTITVVVKTPDYVVVKEIYIDPKNDKPVMDVKVFKPNESAGG [r19_2_TrMRF] | 0.241 ± 0.059 |  | -0.954 ± 0.7
SAGWRRIPPGRPIRIRLKGNGEEITIPIPEGAEVEPDPDNNNVMIWFREDGKEWSMNFKNGRIDDIEPVSAG [r5_22_TrROS] | -0.194 ± 0.32 |  | < -1
SALPPEEVKKLARDIMREFNPDNGFKPEDVDVDPNEGTIMVDWRMPDPNGKRHRMPFQIQVDKDGKIKISAG [r14_183_TrROS] | -0.306 ± 0.36 |  | < -1

Sequence | folding stability dG unfold [1] [kcal/mol] | folding stability dG unfold [2] [kcal/mol] | folding stability dG unfold [3] [kcal/mol]
SAMTLTVPPSLSATDAAGNAIPPSLSIEVEKVTPLPETGKVVAEVKITDPETGETTTRPLTITLPPGEASAG [r14_258_JUSTAS] | 0.827 ± 0.048 |  | 0.506 ± 0.19
SDILERAAEKGVDEIHIMLQPNQIELIKRLQDRGAKIEIHFPPGVPKEYLKKLPGFKVDKVEWMPPDDMPSA [r9_671_TrROS] | -0.928 ± 0.56 |  | < -1
SDVNIKPEKVDPNGIFTVEIPVDNNNVDKLREIINEIFPNFEPTEVKPNPESGYHEIIMRVPDGKAFEFSSA [r9_1164_TrROS] | -0.141 ± 0.04 |  | -0.55 ± 0.14
SEEIAKKIADELKKAGYEVVKVEVTYDKETKKVTIKIVVKDKKTNEYYKITIKLNEETGEIVEVKIEKLPSA [r9_814_TrROS_Hall] | 2.96 ± 0.42 | 4.14 ± 0.41 | 
SGMTTSLGKSTTTTLPDGTTVKTEVKLTRPSSGTVVVTTDTTTVTPGTGTTTTTPTTTVVPVPPGVPGLLSA [r9_709_JUSTAS] | -0.522 ± 0.051 |  | < -1
SGNSLNEKGESYPITVKAPDPNVTPEQVKAALEKAGAKVLEIKRPPKGSTLTVSVEITDPEKVKEAFEKLSA [r9_1154_JUSTAS] | -1.05 ± 0.44 |  | < -1
SGSPSTPVTITVEFPPRLTTVLYREPTRPPLGYLLVPEPSRTETITVPVSEVAAVKAELEPRGMTVTVTASA [r9_167_JUSTAS] | -0.69 ± 0.33 |  | < -1
SITASAKHPEEAIELAEKLKKELEKLLGPDTKVPITLYDDKGNPATFPITLKKKKPKVIYDPEKGLYRDESA [r9_596_TrMRF] | 0.042 ± 0.25 |  | -0.332 ± 0.55
SKITITIEEEEVEVNGKKYKVFKVTATVTVTEYKFKDGKLVEKKTKTKTITVRIVLDKNGKIVKIEPLPDSA [r9_829_TrROS_Hall] | 4.33 ± 0.32 |  | > 6
SKMKIKIEITEVYPEGKTIVVKAEIEIDGKTIEMEMTIKLPNGEEYRIRMRFVRRKDGRLEMEIEVEKLPSA [r9_255_TrROS_Hall] | 5.33 ± 0.51 |  | > 6
SKVLELLKELAKKLGATITEVKVEKLEDGTVKVTATITVTYLDKNGKPVKTETLTLTITVKNGKITEIKLSA [r9_519_TrROS_Hall] | 4.66 ± 0.55 |  | > 6
SMGLTKKERVITIVKEAYAKNPDKKITLRYADIEATTPEKMSAEEIEKLLKEVTGIKDIKIYPVKPDDPESA [r9_738_TrMRF] | 0.0464 ± 0.25 |  | < -1
SMKALVLELPEEKVVVVFETDELKVVPIPVKDKEEAKEKIEELVKELEEETGKKPEVVVVEVDEDEELPVSA [r9_786_TrMRF] | -0.0691 ± 0.16 |  | < -1
SMKIKITAKTEEEREKAKKLLEEIAKELNIEIKIEKIEVIPKPKPEKVELSEEEKKKLKELEEEGLIEEESA [r9_472_TrROS_Hall] | 0.578 ± 0.059 |  | < -1
SMKKTLTEKIEGVLPEEEAERYLEEYIASRPWAEKVEVKPEIKPIFDEKGNKLVKVKTTITVTISEEKLKSA [r9_1006_JUSTAS] | -0.776 ± 0.95 |  | < -1
SNPWQIKFRNPNRPVEIPIQMNPDDGYVGISVRMRKPGKPKTHTITYKVKNIEDLLDHLEDLPPGFEIEPSA [r9_713_TrROS] | 0.435 ± 0.27 |  | -0.0771 ± 0.45
SPAVRPLSAEFYDPRYTVEAPVYESEEGEPVLNIRFLVPEYELEIPFPLEDPEAVFESFAEDGVSLTLTDSA [r9_384_TrMRF] | 0.0201 ± 0.088 |  | -0.723 ± 0.17
SPIVTDLPPKEATRVEVEALVEELEAKGEPPREVVVYDPSRGVPLATIPVTSREELLAAVEAGRPFRVLLSA [r9_718_JUSTAS] | -0.697 ± 0.31 |  | < -1
SSVITNKGSLTITKTTLPDGTVVITITDPNGGRTTTITIPADSDGEATVTPTGSGNAATSTIPVSSLKLSSA [r9_1071_JUSTAS] | 0.505 ± 0.096 |  | 0.183 ± 0.21
VEFEEIETTFTLAAPGGSLVDVDLKTTKKDPKNGKVYIEGTLTTVDPGGVPRTLPTKRVVSPEELKQLVSES [r1_371_JUSTAS] | 0.143 ± 0.19 |  | -0.318 ± 0.49
